This experiment concerns the target Cy3-labeled human histone nucleosome core particle reconstituted on the Widom 601 sequence (human) (UniProt P62807). As to the kind of experiment: single-molecule fluorescence imaging on optical tweezers.

In the case of “HaloTag-635-LIG3α (wild type, nuclear DNA ligase IIIα) (enzyme)”, the lifetime worked out at 24 s.

These data come from article PMC12748704.
